Results from patent US10465005B2, “JAML specific binding agents, antibodies, and uses related thereto” (Emory University, priority 2011, dated 2019).
“Also recorded” adds a separate entry of the source.

Columns and labels:
[1] = tested on: CHO-JAML and CHO-CAR cells; experiment: CHO-JAML / CHO-CAR cell aggregation assay; assay type: cell-based; details: for aggregation of mixed CHO-CAR and CHO-JAML cultures (number and size of clusters): antibodies 30 μg/ml, 1 hour at 37° C., FIG. 1D
Experimental: FIG. 1D. CHO-K1 cells stably transfected with either JAML (CHO-JAML) or CAR (CHO-CAR) proteins were allowed to aggregate (1 hour at 37° C. on a shaker at 50 RPM) separately (1×10^6 cells/BSA coated 3 ml Petri dish), or as a mix (5×10^5 each cell type/dish), in the absence or presence of anti-JAML monoclonal antibodies DW100, DW55 and DW216 (30 μg/ml). The number of clusters (left) and the area of the clusters (right) were quantified in 7 randomly chosen fields using light microscopy. The results are representative of four independent experiments. CHO-CAR and CHO-JAML in mixed cultures formed large aggregates.
Because certain antibodies recognize the membrane distal domain of JAML, their ability to inhibit binding to CAR was tested. By ELISA, the levels of soluble CAR-GST bound to immobilized sJAML-His preincubated with anti JAML antibodies was measured. […] Thus, these antibodies recognize three different epitopes on JAML and that both DW100 and DW55 bind epitopes close to the JAML binding site. Using a cell aggregation assay, the possibility that DW100 could inhibit the binding of JAML to CAR expressed on the surface of cells was examined. […] This again confirms previously described JAML binding to CAR, as well as the specificity of DW100 (blocking) and DW216 (non-blocking) Abs to JAML.

T84 and CACO-2 cells = experiment: Cell adhesion assay, PMN and HL60 to epithelial monolayers; assay type: cell-based, human; details: sJAML-His and mAbs 30 μg/ml, 1 hour
Experimental: PMN cells were pre-labeled with CellTracker™ Green (CMFDA). Labeled cells (2.5×10^5/well) were allowed to adhere for 1 hour to T84 (white bars) and CACO-2 (black bars) cells grown to confluency in 24 well tissue culture microtiter wells, in the absence (NoTx) or presence of soluble JAML (sJAML-His), 30 μg/ml), anti-JAML monoclonal antibodies DW100 and DW216 (30 μg/ml), or alternatively to stable CACO-2 cells lacking CAR. Non-adherent HL60 cells and PMN were removed by 3 washes with HBSS. Adherent cells were harvested by treating the monolayers with trypsin, followed by lysis with 0.1% Triton 100×. Fluorescence intensity was measured using FluoStar Galaxy plate reader at excitation/emission wavelengths of 485/535 nm.
JAML-CAR interactions are involved in PMN adhesion to epithelium. […] Indeed adhesion of both HL-60 cells and PMNs to epithelium is partly dependent upon JAML-CAR binding. […] HL-60 cells and PMNs also adhered to a lesser degree to Caco2 cells where the expression of CAR was stably knocked down, confirming the specificity of the adhesion events to JAML-CAR interactions.
Epithelial cells (T84/Caco-2) were seeded on 24-well plates (10^6 cells/well) and cultured until they reached confluence. […] Fluorescence intensity was measured using FluoStar Galaxy plate reader at excitation/emission wavelengths of 485/535 nm. […]

[2] = tested on: T84 epithelial monolayers; experiment: Scratch wound closure of epithelial monolayers; assay type: cell-based, human; details: for epithelial wound closure: T84 scratch wound, monitored over 72 h, FIG. 10
Experimental: T84 epithelial monolayers grown to confluence were wounded by introduction of a single linear scratch wound using a 20-μl plastic pipette tip. Wound closure was monitored over 72 h in the absence or presence of PMN or sJAML. The scale bar is 10 μm.
Whether JAML binding to CAR would affect epithelial wound restitution was investigated. […] If soluble JAML interactions with CAR play a role, the effect could be reversed with the addition of blocking DW100 mAb.
Cell grown in 24-well tissue culture plates received one linear wound using a 20-μl plastic pipette tip attached to low suction. Wounded monolayers were washed once with PBS to remove detached cells and debris, and incubated with the appropriate stimulus added to the medium. The rate of migration was measured by determining the wound area immediately after wounding (t=0) and at the indicated time points. The data are presented as the area of the wound at each time point normalized to t=0. The experiments were carried out in triplicates per condition, and the data shown are representative of 4 independent experiments.

[3] = tested on: T84 intestinal epithelial cells; experiment: EdU incorporation cell proliferation at wound edge; assay type: cell-based, human; details: FIG. 10C,D
Experimental: FIG. 10C. Epithelial monolayers were wounded as described above and cell proliferation at the wound edge after 24 hours incubation with either sJAML or sSIRPa (30 μg/ml), with or without the addition of DW100 mAb was assessed by EdU incorporation assay. Data presented as proliferating cells (positively stained with EdU) out of all cells in the field multiplied by 100. Cells were counted in 7 randomly selected fields in 4 independent experiments.
JAML binding CAR to inhibit epithelial cell proliferation was investigated as a possible mechanism for impeding wound healing.
Cell proliferation was assessed in […] (EdU) incorporation assay, by using a Click-iT EdU Alexa 488 cell proliferation kit (Invitrogen). Cell apoptosis was assessed by staining with sulforhodamine labeled caspase inhibitor SR-VAD-FMK from APO LOGIX
Sulforhodamine Caspase Detection kit (Cell Technology). Scratch wounded or confluent cells were subjected to treatment as indicated in the figure were incubated for 24 hrs at 370 C before addition of EdU or APO LOGIX Sulforhodamine Caspase Detection kits. At least 5 random fields per each condition were analyzed, the data are presented as % proliferating/apoptotic cells out of total cells in the field.

B1: DW100: monoclonal anti-human JAML antibody (IgG1,κ), hybridoma ATCC PTA-13051; VH SEQ ID NO:19, VL SEQ ID NO:22 (antibody, V domains shown)
VH: DVQLVESGAELVRPGASKLSCKALAYTFTDYEMHWVKQTPVHGLEWIGIIHPGSGGTVYNQKFKGKATLTADKSSSTAYMELSSLTSEDSTVYYCTRRRYYGSSYNWYFDVWGAGN
VL: VLTQSPASLAASVGETVTITCRASENIYYSLAWYQQKQGKSPQLLIYNANSLEDGVPSRFSGSGSGTQYSLKINSMQPEDTATYFCEQTYDVPLTFGAGTKLEL
- aggregation of CHO-JAML cells alone (JAML-JAML) ([1]; FIG. 1): could not be blocked with DW100 mAb
- aggregation of mixed CHO-CAR and CHO-JAML cultures (number and size of clusters) [1]: could be blocked with DW100; also recorded: significantly inhibited aggregation of mixed cultures of CHO transfectants; also recorded: significantly decreased both the size and the number of formed clusters
- adhesion of HL60 cells and PMN to epithelial monolayer (T84 and CACO-2 cells; FIG. 8): decreased adhesion of HL60 cells and PMN to epithelial monolayer; also recorded: significantly decreased
- reversal of PMN or sJAML inhibition of wound closure ([2]; T84, mAb 30 μg/ml, FIG. 10A,B): reversed this inhibition; also recorded: significantly improved wound restitution
- block of soluble JAML inhibition of proliferation ([3]; EdU): blocked by addition of DW100

B2: sJAML: recombinant soluble fragment of JAML.D1D2 tagged with 10 His residues at the C-terminus (protein)
chain: LNDLNVSPPELTVHVGDSALMGCVFQSTEDKCIFKIDWTLSPGEHAKDEYVLYYYSNLSVPIGRFQNRVHLMGDILCNDGSLLLQDVQEADQGTYICEIRLKGESQVFKKAVVLHVLPEEPKELMVHVGGLIQMGCVFQSTEVKHVTKVEWIFSGRRAKEEIVFRYYHKLRMSVEYSQSWGHFQNRVNLVGDIFRNDGSIMLQGVRESDGGNYTCSIHLGNLVFKKTIVLHVSPEEPRTL
- aggregation of mixed CHO-CAR and CHO-JAML cultures (number and size of clusters) [1]: blocked
- adhesion of HL60 cells and PMN to epithelial monolayer (T84 and CACO-2 cells; FIG. 8, listed as soluble JAML): decreased adhesion of HL60 cells and PMN to epithelial monolayer; also recorded: significantly decreased
- epithelial wound closure [2]: inhibited wound closure
- epithelial wound closure ([2]; listed as Soluble JAML): delayed both epithelial barrier recovery and wound restitution
- proliferation of epithelial cells at wound edge (EdU) ([3]; 30 μg/ml, 24 hours): significantly inhibits proliferation of T84 intestinal epithelial cells
